US20260014269A1 (NECTIN THERAPEUTICS, published 2026)

T1: Nectin-4 on MDA-MB-468 cells (human, UniProt Q96NY8 32-510)
T1 construct: whole, on cells; also called Nectin-4 (on-cell)
T1 sequence (looked up): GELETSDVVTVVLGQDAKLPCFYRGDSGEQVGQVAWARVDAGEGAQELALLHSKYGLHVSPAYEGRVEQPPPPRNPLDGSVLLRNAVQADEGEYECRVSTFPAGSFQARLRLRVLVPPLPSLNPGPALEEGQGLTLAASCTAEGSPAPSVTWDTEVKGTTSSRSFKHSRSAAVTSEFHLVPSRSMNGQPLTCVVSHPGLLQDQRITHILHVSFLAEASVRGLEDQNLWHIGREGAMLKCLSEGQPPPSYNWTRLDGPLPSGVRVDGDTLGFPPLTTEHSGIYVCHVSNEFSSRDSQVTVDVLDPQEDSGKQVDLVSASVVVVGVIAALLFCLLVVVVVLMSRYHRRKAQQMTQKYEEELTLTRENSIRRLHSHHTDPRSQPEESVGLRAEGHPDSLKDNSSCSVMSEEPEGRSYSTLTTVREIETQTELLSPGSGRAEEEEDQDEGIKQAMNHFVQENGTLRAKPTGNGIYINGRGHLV

T2: recombinant human Nectin-4 (Acro Biosystems) (human, UniProt Q96NY8 32-349)
T2 construct: Bought recombinant antigen used as analyte in SPR; also called PVRL4
T2 sequence (looked up): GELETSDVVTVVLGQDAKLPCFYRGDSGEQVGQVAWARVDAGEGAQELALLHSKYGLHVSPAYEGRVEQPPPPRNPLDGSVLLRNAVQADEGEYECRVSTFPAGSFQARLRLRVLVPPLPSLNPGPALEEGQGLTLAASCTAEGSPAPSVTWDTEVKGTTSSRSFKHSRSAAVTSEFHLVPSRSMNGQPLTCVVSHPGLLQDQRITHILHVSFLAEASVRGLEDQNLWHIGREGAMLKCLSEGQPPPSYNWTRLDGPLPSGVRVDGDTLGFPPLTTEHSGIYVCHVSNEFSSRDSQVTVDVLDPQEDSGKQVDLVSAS

T3: recombinant cynomolgus Nectin-4 (Acro Biosystems) (cynomolgus, UniProt A0A2K5WES1 32-349)
T3 construct: Bought recombinant antigen used as analyte in SPR; also called Cyno Nectin-4
T3 sequence: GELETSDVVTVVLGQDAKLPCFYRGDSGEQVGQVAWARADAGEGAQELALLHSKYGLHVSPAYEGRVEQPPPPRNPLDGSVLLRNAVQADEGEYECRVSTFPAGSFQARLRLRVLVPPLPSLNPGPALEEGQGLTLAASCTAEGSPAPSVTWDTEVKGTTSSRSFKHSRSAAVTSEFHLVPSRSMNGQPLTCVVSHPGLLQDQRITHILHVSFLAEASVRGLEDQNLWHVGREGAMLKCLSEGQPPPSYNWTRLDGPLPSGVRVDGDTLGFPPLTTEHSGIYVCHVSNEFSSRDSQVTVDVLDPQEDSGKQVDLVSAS


Legend:
[1] = molecular target: T1, Nectin-4 on MDA-MB-468 cells; assay: flow cytometry staining of MDA-MB-468 cells, anti-human IgG Fab Alexa Fluor 647 detection
[2] = molecular target: T2, recombinant human Nectin-4 (Acro …); assay: SPR, Biacore T200 single cycle kinetics at 25 C, IgG from culture supernatant, Nectin-4 as analyte
Protocol: (§1) In order to assess the binding of all of the variants to human or cynomolgus Nectin-4 antigen and select lead humanized IgGs with the closest affinity to the chimeric (VH0/Vκ0) antibody, single cycle kinetic was performed on supernatants from transfected cell cultures. Kinetic experiments were performed at 25° C. on a Biacore T200 running Biacore T200Control software V2.0.1 and Evaluation software V3.0 (Cytiva, Marlborough, USA). Single cycle kinetic data was obtained using recombinant human (Acro Biosystems, Newark, USA) or cynomolgus Nectin-4 (Acro Biosystems, Newark, USA) as the analyte injected at a flow rate of 40 μl/min to minimize any potential mass transfer effects. A four point, two-fold dilution range from 1.25 nM to 10 nM of antigen in running buffer was used without regeneration between each concentration. The association phases were monitored for 150 seconds for each of the four injections of increasing concentrations of antigen and a single dissociation phase was measured for 250 seconds following the last injection of antigen (in order to improve fit the dissociation was cropped to 175 seconds for human Nectin-4). Regeneration of the sensor chip surface was conducted using a single injection of 3 M MgCl₂. Based on relative KD from Biacore single cycle kinetics analysis on supernatants, six humanized variants (VH4/Vκ1, VH4/Vκ3, VH4/Vκ4, VH4/Vκ5, VH5/Vκ4 and VH5/Vκ5) were selected as lead IgGs for scaled-up production and purification.

[3] = molecular target: T3, recombinant cynomolgus Nectin-4 (Acro …); assay: as above
Protocol: as §1

[4] = molecular target: T1, Nectin-4 on MDA-MB-468 cells; assay: flow cytometry on MDA-MB-468 cells, 3-fold dilutions from 3 ug/ml, detection with Alexa Fluor 647 Fab goat anti-human IgG (H+L); y axis % Bound
Protocol: Binding was evaluated on MDA-MB-468 cells. Briefly, 5*10+ cells per well were stained using either PADCEV or NTX1105 conjugated to MMAE at the same DAR as PADCEV. The ADCs were added at concentrations starting 3 μg/ml using 3-fold dilutions. […] After 72 hours, the assay was harvested and tumor cell killing was evaluated using CellTiter-Glo® 2.0 Cell Viability Assay-(Promega G9242).

| EC50 [1] | fold stronger EC-50 than NTX1105 conjugated to MMAE [1] | Kd [2] | Kd [3] | EC50 (read off the curve) [4] | Molecule |
| --- | --- | --- | --- | --- | --- |
| 0.01 nM | 20 fold | – | – | – | Enfortumab-vedotin (PADCEV) (antibody) |
| – | – | 10.9 nM | 12.1 nM | – | NTX1105 (VH0/Vκ0) parental chimeric anti-Nectin-4 antibody, clone-11 (VH0/Vκ0)-hIgG1 (antibody, V domains shown, Tested from supernatants of transfected cell cultures; also called chimeric antibody; parental mAb) VH: QVQLQQSGPELVKPETSVKISCKASGYTFTSYYIHWVKQRPGQGLEWIGWIYPGNVNTKYNERFKGKATLTADKSSNTAHMQLTSLTSEDSAVYFCARSNPYVMDYWGQGTSVTVSS VL: SIVMTQTPKFLLVSAGDRVTITCKASQSVNNDVAWYQQKPGLSPELLMYYASNRFTGVPDRFTGSGYGTDFTFTISSVQAEDLAIYFCQQAYRSPYTFGGGTKLEIQR |
| – | – | – | – | ~0.01 µg/mL | NTX1105 (H4K5) ADC, conjugated to MMAE at the same DAR as PADCEV (antibody, V domains shown, also called NTX1105-MMAE; NTX1105-MC-VC-PAB-MMAE DAR4) VH: QVQLVQSGSELKKPGASVKVSCKASGYTFTSYYIHWVRQAPGQGLEWIGWIYPGNVNTKYNERFKGRVTITADKSTNTAYMELSSLRSEDTAVYYCARSNPYVMDYWGQGTSVTVSS VL: DIQMTQSPSTLSASVGDRVTITCRASQSVNNDVAWYQQKPGKAPKLLMYYASNRFTGVPDRFSGSGYGTDFTLTISSLQAEDVAVYFCQQAYRSPYTFGQGTKLEIK |
| – | – | 18 nM | 21.3 nM | – | NTX1105 humanized variant VH4/Vκ4 (antibody, V domains shown, Humanized IgG) VH: QVQLVQSGSELKKPGASVKVSCKASGYTFTSYYIHWVRQAPGQGLEWIGWIYPGNVNTKYNERFKGRVTITADKSTNTAYMELSSLRSEDTAVYYCARSNPYVMDYWGQGTSVTVSS VL: DIQMTQSPSTLSASVGDRVTITCRASQSVNNDVAWYQQKPGKAPKLLMYYASNRFTGVPDRFSGSGYGTDFTLTISSLQAEDLAIYFCQQAYRSPYTFGQGTKLEIK |
| – | – | 12.2 nM | 13.7 nM | – | NTX1105 humanized variant VH4/Vκ5 (antibody, V domains shown, also called NTX1105 (H4/k5); H4K5) VH: QVQLVQSGSELKKPGASVKVSCKASGYTFTSYYIHWVRQAPGQGLEWIGWIYPGNVNTKYNERFKGRVTITADKSTNTAYMELSSLRSEDTAVYYCARSNPYVMDYWGQGTSVTVSS VL: DIQMTQSPSTLSASVGDRVTITCRASQSVNNDVAWYQQKPGKAPKLLMYYASNRFTGVPDRFSGSGYGTDFTLTISSLQAEDVAVYFCQQAYRSPYTFGQGTKLEIK |
| – | – | 11.5 nM | 12.7 nM | – | NTX1105 humanized variant VH5/Vκ5 (antibody, V domains shown, Humanized IgG; also called H5K5) VH: QVQLVQSGSELKKPGASVKVSCKASGYTFTSYYIHWVRQAPGQGLEWMGWIYPGNVNTKYNERFQGRVTITADKSTSTAYMELSSLRSEDTAVYYCARSNPYVMDYWGQGTSVTVSS VL: DIQMTQSPSTLSASVGDRVTITCRASQSVNNDVAWYQQKPGKAPKLLMYYASNRFTGVPDRFSGSGYGTDFTLTISSLQAEDVAVYFCQQAYRSPYTFGQGTKLEIK |
| – | – | 15.5 nM | 19.4 nM | – | NTX1105 humanized variant VH4/Vκ3 (antibody, V domains shown, Humanized IgG) VH: QVQLVQSGSELKKPGASVKVSCKASGYTFTSYYIHWVRQAPGQGLEWIGWIYPGNVNTKYNERFKGRVTITADKSTNTAYMELSSLRSEDTAVYYCARSNPYVMDYWGQGTSVTVSS VL: DIQMTQSPSTLSASVGDRVTITCKASQSVNNDVAWYQQKPGKAPKLLMYYASNRFTGVPDRFSGSGYGTDFTLTISSLQAEDLAIYFCQQAYRSPYTFGQGTKLEIK |
| – | – | 15.4 nM | 19.3 nM | – | NTX1105 humanized variant VH4/Vκ1 (antibody, V domains shown, Humanized IgG) VH: QVQLVQSGSELKKPGASVKVSCKASGYTFTSYYIHWVRQAPGQGLEWIGWIYPGNVNTKYNERFKGRVTITADKSTNTAYMELSSLRSEDTAVYYCARSNPYVMDYWGQGTSVTVSS VL: SIVMTQSPSFLLASAGDRVTITCKASQSVNNDVAWYQQKPGLAPELLMYYASNRFTGVPDRFTGSGYGTDFTLTISSLQAEDLAIYFCQQAYRSPYTFGQGTKLEIK |
| – | – | 17.7 nM | 19.2 nM | – | NTX1105 humanized variant VH5/Vκ4 (antibody, V domains shown, Humanized IgG) VH: QVQLVQSGSELKKPGASVKVSCKASGYTFTSYYIHWVRQAPGQGLEWMGWIYPGNVNTKYNERFQGRVTITADKSTSTAYMELSSLRSEDTAVYYCARSNPYVMDYWGQGTSVTVSS VL: DIQMTQSPSTLSASVGDRVTITCRASQSVNNDVAWYQQKPGKAPKLLMYYASNRFTGVPDRFSGSGYGTDFTLTISSLQAEDLAIYFCQQAYRSPYTFGQGTKLEIK |
